pKi: −log10 of the molar value.
Tests used:
Human α-thrombin (human) [1] = molecular target: Human α-thrombin (human) (UniProt P00734); assay: inhibition of thrombin by monovalent active-site moiety; conditions not given at the table
Human α-thrombin (human) [2] = molecular target: Human α-thrombin (human) (UniProt P00734); assay: inhibition of thrombin-catalysed hydrolysis of chromogenic substrate S-2238, 37 °C

Substance | pKi (Human α-thrombin (human) [1]) | pKi (Human α-thrombin (human) [2])
Boc-dFPR (peptide) | 5.36 | 
H-dFPR (peptide) | 5.80 | 
Bbs-R-(d-Pip)-W-NH2 (peptide) | 5.22 | 
Bbs-R-(d-Pip)-NH2 (peptide) | 5.95 | 
Dansyl-R-(d-Tic)-NH2 (peptide) | 6.07 | 

More lines, now with the values ahead:

pKi (Human α-thrombin (human) [1]) | pKi (Human α-thrombin (human) [2]) | Substance
6.43 |  | Dansyl-R-(d-Pip)-NH2 (peptide)
6.09 |  | Dansyl-R-(d-Pip)-Abu-NH2 (peptide)
 | 8.70 | Bivalirudin (peptide)
5.65 |  | Bbs-R-(d-Pip)-G-NH2 (peptide)
3.77 |  | Ac-dFPR (peptide)

— patent publication US20140113854A1
